Laboratory results taken from article PMC3392941 (The Journal of Cell Biology, 2012).

Target: T1, Recombinant Myo2 CBD, Myo2(1,131–1,574) (S. cerevisiae, UniProt P19524 1131-1574)
T1 sequence: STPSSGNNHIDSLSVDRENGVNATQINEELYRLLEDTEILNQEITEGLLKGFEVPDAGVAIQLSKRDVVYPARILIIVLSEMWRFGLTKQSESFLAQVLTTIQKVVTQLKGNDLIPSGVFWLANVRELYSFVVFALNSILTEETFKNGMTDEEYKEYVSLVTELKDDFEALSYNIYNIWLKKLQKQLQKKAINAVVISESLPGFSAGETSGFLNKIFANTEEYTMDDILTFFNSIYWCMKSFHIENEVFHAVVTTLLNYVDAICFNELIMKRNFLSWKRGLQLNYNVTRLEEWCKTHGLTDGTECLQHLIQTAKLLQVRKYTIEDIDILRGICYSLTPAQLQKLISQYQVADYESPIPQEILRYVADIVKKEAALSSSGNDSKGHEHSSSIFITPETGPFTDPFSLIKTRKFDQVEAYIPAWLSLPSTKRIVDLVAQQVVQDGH
Assay: SEC

PNEAPNDSPQSQSTRSSLGSFQPRPLKIIERQRLCMVTPSKPPKKS (domain or fragment) [MBP-Vac17(112–157)]: binds.
